Source: article PMC4057017

Target: BG505 EnvΔCT trimer (cleaved, membrane-derived) (HIV-1 isolate BG505 (clade A))
Assay: single particle EM reconstruction

PGT151 Fab was tested, and the stoichiometry N (Fabs per trimer) was 2.
